Assay results reported in patent US20030206891A1, “Rapamycin-based biological regulation” (ARIAD Gene Therapeutics, Inc., priority 1995, published 2003).

Legend:
[1] = molecular target: 1FRB-p65(361-550) (human) (UniProt P42345); test: cell-based or functional assay
[2] = molecular target: His6-flag-FKBP protein with FK506 (human); test: phage display affinity enrichment: 1 µM His6-flag-FKBP plus FK506, Ni-NTA agarose capture, acid elution
[3] = molecular target: His6-flag-FKBP protein alone (ethanol, no drug) (human); test: phage display affinity enrichment: 1 µM His6-flag-FKBP with ethanol alone, Ni-NTA agarose capture, acid elution
Sequence of His6-flag-FKBP protein alone (ethanol, no drug) (human) (chain, as listed by the source limits assumed): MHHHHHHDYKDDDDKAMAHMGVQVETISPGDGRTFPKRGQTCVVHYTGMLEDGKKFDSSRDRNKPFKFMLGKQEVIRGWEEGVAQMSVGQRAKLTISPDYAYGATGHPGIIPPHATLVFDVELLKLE

[4] = molecular target: His6-flag-FKBP protein with rapamycin (human); test: phage display affinity enrichment: FRAP phagemids mixed with pBC control phagemids, 1 µM His6-flag-FKBP plus rapamycin, Ni-NTA agarose capture, acid elution
Sequence of His6-flag-FKBP protein with rapamycin (human) (chain, as listed by the source limits assumed): as above

Sequence of His6-flag-FKBP protein with FK506 (human) (chain, as listed by the source limits assumed): as above

Substance “ZFHD1-3FKBP (from UniProt P62942 1-107; P62942 1-107; P62942 1-107)” has an SEAP activity of the stable clone at 1100 nM rapamycin (arbitrary fluorescence units) [1] of over 90000, an SEAP activity of the stable clone, no rapamycin (mock transfected cells 47 units) (arbitrary fluorescence units) [1] of 54 and an SEAP secretion, enhancement with rapamycin over background [1] of over 1000 fold. The SEAP secretion, transiently transfected HT1080 cells: lowest rapamycin concentration with detectable signal [1] was 0.5 nM and the SEAP secretion, transiently transfected HT1080 cells: rapamycin concentration of the peak [1] was 5 nM.

“phagemids displaying FRAP (amino acids 2015-2114) (from UniProt P42345 2015-2114; P03661 216-424)” gave a fold enrichment of FRAP phage compared to the starting mixture (carb/chlor cfu ratio) [2] of 2.4 fold, a fold enrichment of FRAP phage compared to the starting mixture (carb/chlor cfu ratio) [3] of 1.5 fold and a fold enrichment of FRAP phage compared to the starting mixture (carb/chlor cfu ratio) [4] of 271 fold.
